From patent US20180291096A1 (Janssen / Centocor, published 2018) come the findings set out here.

For test [1], the target named is T1, recombinant human IL-23 (hrIL-23), produced at Centocor (human, UniProt P29460 23-328).
T1 construct: p19-p40 heterodimer; also called rhIL-23; huIL-23
T1 sequence 1: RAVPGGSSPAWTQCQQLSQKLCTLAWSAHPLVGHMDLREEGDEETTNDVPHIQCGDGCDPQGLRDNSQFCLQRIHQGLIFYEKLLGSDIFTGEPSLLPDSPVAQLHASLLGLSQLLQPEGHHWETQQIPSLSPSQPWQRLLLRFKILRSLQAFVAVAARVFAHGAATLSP
T1 sequence 2: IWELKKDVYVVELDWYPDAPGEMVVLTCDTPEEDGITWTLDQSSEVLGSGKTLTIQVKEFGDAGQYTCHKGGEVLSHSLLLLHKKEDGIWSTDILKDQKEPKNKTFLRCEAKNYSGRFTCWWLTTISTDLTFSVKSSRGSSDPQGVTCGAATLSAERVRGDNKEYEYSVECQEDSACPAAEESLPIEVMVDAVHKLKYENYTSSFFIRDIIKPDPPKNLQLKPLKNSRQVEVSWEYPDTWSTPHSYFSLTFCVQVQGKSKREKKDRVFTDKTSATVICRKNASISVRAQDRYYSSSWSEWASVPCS
The test can be described thus: SET.

For test [2], the target named is T1, recombinant human IL-23 (hrIL-23), …. Put plainly: IL-23/IL-23R competition assay.
Test [3] shares this target. Put plainly: cell-based or functional assay.
The target is the same in test [4]. Put plainly: SET. The source holds these as a separate data set.
Test [5] shares this target. Put plainly: IL-23/IL-23R competition assay. This is another data set of the same source.

Like-named read-outs stand apart in the source and are kept apart here.

B1: MOR05034 Fab (Fab, V domains shown)
VH: QVQLVQSGAEVKKPGSSVKVSCKASGGTFSSNYISWVRQAPGQGLEWMGLIDPNFGGAYYAQKFQGRVTITADESTSTAYMELSSLRSEDTAVYYCARSKKGMYGGWTYPLMMFDLWGQGTLVTVSS
VL: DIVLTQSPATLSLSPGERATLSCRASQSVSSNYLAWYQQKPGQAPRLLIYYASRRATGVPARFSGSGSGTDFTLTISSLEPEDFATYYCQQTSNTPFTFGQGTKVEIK
notes: Fab
As a reminder, the Kd is the concentration at which binding is half-saturated. By IC50 is commonly meant the concentration that gives 50% inhibition. Turning to B1, the Kd in test [1] amounted to 126 pM. The IC50 in test [2] amounted to 400 pM.

B2: MOR05031 mAb (antibody, human IgG1, V domains shown)
VH: QVELVQSGAEVKKPGSSVKVSCKASGGTFSSNYISWVRQAPGQGLEWMGGIIPIFGHANYAQKFQGRVTITADESTSTAYMELSSLRSEDTAVYYCARSKKGMYGGWTYPLMMFDLWGQGTLVTVSS
VL: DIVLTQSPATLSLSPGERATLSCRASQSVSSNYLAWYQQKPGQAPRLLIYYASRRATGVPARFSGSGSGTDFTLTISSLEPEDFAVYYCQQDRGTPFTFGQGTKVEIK
As for B2, the “IC50, inhibition of IL-17 production” value in test [3] was found to be 0.215 µg/mL.

B3: MOR05033 mAb (antibody, human IgG1, V domains shown)
VH: QVELVQSGAEVKKPGSSVKVSCKASGGTFSSNYISWVRQAPGQGLEWMGIIIPPIGNAWYAQKFQGRVTITADESTSTAYMELSSLRSEDTAVYYCARSKKGMYGGWTYPLMMFDLWGQGTLVTVSS
VL: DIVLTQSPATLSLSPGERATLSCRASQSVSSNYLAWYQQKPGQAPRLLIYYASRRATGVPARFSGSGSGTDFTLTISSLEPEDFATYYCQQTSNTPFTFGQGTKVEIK
On to B3, for which the “IC50, inhibition of IL-17 production” value in test [3] is 0.283 µg/mL.

B4: MOR05037 mAb (antibody, human IgG1, V domains shown)
VH: QVELVQSGAEVKKPGSSVKVSCKASGGTFSSNYISWVRQAPGQGLEWMGLIDPMFGGAYYAQKFQGRVTITADESTSTAYMELSSLRSEDTAVYYCARSKKGMYGGWTYPLMMFDLWGQGTLVTVSS
VL: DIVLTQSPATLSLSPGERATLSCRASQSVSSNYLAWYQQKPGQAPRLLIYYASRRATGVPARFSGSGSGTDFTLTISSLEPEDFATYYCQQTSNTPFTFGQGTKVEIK
Turning to B4, in test [3], the “IC50, inhibition of IL-17 production” value is 0.336 µg/mL.

B5: MOR05036 Fab (Fab, V domains shown)
VH: QVQLVQSGAEVKKPGSSVKVSCKASGGTFSSNYISWVRQAPGQGLEWMGLIDPVFGGAYYAQKFQGRVTITADESTSTAYMELSSLRSEDTAVYYCARSKKGMYGGWTYPLMMFDLWGQGTLVTVSS
VL: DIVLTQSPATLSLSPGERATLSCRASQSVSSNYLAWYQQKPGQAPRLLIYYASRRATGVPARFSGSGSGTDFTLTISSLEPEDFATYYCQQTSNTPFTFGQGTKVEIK
notes: Fab
In the case of B5, in test [1], the Kd turned out to be 32 pM. Besides, in test [2], the IC50 was 320 pM.

B6: MOR05267 Fab (Fab, V domains shown)
VH: QVQLVQSGAEVKKPGSSVKVSCKASGGTFSNYAISWVRQAPGQGLEWMGGIIPMFGYANYAQKFQGRVTITADESTSTAYMELSSLRSEDTAVYYCARDIYAGMDVWGQGTLVTVSS
VL: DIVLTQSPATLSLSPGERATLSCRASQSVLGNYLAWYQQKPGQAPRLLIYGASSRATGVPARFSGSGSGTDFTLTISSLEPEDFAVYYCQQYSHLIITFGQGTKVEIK
notes: Fab
Consider B6, for which the dissociation constant (Kd) in test [1] is 2000 pM. Moreover, the IC50 in test [2] came to 140 pM.

B7: MOR05268 Fab (Fab, V domains shown)
VH: QVQLVQSGAEVKKPGSSVKVSCKASGGTFSNYAISWVRQAPGQGLEWMGGIIPMFGYANYAQKFQGRVTITADESTSTAYMELSSLRSEDTAVYYCARDIYAGMDVWGQGTLVTVSS
VL: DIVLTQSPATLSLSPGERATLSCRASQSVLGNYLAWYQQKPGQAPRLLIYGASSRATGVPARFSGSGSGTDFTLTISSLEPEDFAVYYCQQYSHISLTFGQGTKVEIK
notes: Fab
As for B7, in test [1], the Kd turned out to be 660 pM. Moreover, the IC50 in test [2] was 150 pM.

B8: MOR05269 Fab (Fab, V domains shown)
VH: QVQLVQSGAEVKKPGSSVKVSCKASGGTFSNYAISWVRQAPGQGLEWMGGIIPMFGYANYAQKFQGRVTITADESTSTAYMELSSLRSEDTAVYYCARDIYAGMDVWGQGTLVTVSS
VL: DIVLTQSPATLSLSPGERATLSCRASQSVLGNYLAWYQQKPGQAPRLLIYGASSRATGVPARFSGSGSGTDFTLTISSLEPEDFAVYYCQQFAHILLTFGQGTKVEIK
notes: Fab
Consider B8, for which the Kd in test [1] stood at 960 pM. Besides, the IC50 in test [2] is 200 pM.

B9: MOR05053 Fab (Fab, V domains shown)
VH: QVQLVESGGGLVQPGGSLRLSCAASGFTFSSFGMSWVRQAPGKGLEWVSNIEHKYTSYTTYYAASVKGRFTISRDNSKNTLYLQMNSLRAEDTAVYYCARYWGTPYLMQFDNWGQGTLVTVSS
VL: DIALTQPASVSGSPGQSITISCTGTSSDVGGYNSVSWYQQHPGKAPKLMIYSVSSRPSGVSNRFSGSKSGNTASLTISGLQAEDEADYYCSSYDTNKPLVVFGGGTKLTVL
notes: Fab
In the case of B9, the Kd in test [4] was 27 pM. Further, the IC50 in test [5] is 980 pM.

B10: MOR05063 mAb (antibody, human IgG1, V domains shown)
VH: QVELVESGGGLVQPGGSLRLSCAASGFTFSSFGMSWVRQAPGKGLEWVSNISSSGSSTYYADSVKGRFTISRDNSKNTLYLQMNSLRAEDTAVYYCARYWGTPYLMQFDNWGQGTLVTVSS
VL: DIALTQPASVSGSPGQSITISCTGTSSDVGGYNSVSWYQQHPGKAPKLMIYSVSSRPSGVSNRFSGSKSGNTASLTISGLQAEDEADYYCGSWDPIFSYEVFGGGTKLTVL
Turning to B10, in test [3], the “IC50, inhibition of IL-17 production” value was determined as 0.198 µg/mL.

B11: MOR05062 mAb (antibody, human IgG1, V domains shown)
VH: QVELVESGGGLVQPGGSLRLSCAASGFTFSSFGMSWVRQAPGKGLEWVSNISSSGSSTYYADSVKGRFTISRDNSKNTLYLQMNSLRAEDTAVYYCARYWGTPYLMQFDNWGQGTLVTVSS
VL: DIALTQPASVSGSPGQSITISCTGTSSDVGGYNSVSWYQQHPGKAPKLMIYSVSSRPSGVSNRFSGSKSGNTASLTISGLQAEDEADYYCQTYYFSYSGPVFGGGTKLTVL
Regarding B11, in test [3], the “IC50, inhibition of IL-17 production” value worked out at 0.199 µg/mL.

B12: MOR05061 mAb (antibody, human IgG1, V domains shown)
VH: QVELVESGGGLVQPGGSLRLSCAASGFTFSSFGMSWVRQAPGKGLEWVSNISSSGSSTYYADSVKGRFTISRDNSKNTLYLQMNSLRAEDTAVYYCARYWGTPYLMQFDNWGQGTLVTVSS
VL: DIALTQPASVSGSPGQSITISCTGTSSDVGGYNSVSWYQQHPGKAPKLMIYSVSSRPSGVSNRFSGSKSGNTASLTISGLQAEDEADYYCSSYYFYLQRIVFGGGTKLTVL
Take B12: in test [3], the “IC50, inhibition of IL-17 production” value amounted to 0.309 µg/mL.

B13: MOR05039 Fab (Fab, V domains shown)
VH: QVQLVESGGGLVQPGGSLRLSCAASGFTFSSFGMSWVRQAPGKGLEWVSNIEHKYLNYATYYAASVKGRFTISRDNSKNTLYLQMNSLRAEDTAVYYCARYWGTPYLMQFDNWGQGTLVTVSS
VL: DIALTQPASVSGSPGQSITISCTGTSSDVGGYNSVSWYQQHPGKAPKLMIYSVSSRPSGVSNRFSGSKSGNTASLTISGLQAEDEADYYCSSYDTNKPLVVFGGGTKLTVL
notes: Fab
Turning to B13, in test [4], the Kd was found to be 27 pM. For the same molecule, the IC50 in test [5] was 100 pM.

B14: MOR04658 mAb (antibody, human IgG1, V domains shown)
VH: QVELVESGGGLVQPGGSLRLSCAASGFTFSSFGMSWVRQAPGKGLEWVSNISSSGSSTYYADSVKGRFTISRDNSKNTLYLQMNSLRAEDTAVYYCARYWGTPYLMQFDNWGQGTLVTVSS
VL: DIALTQPASVSGSPGQSITISCTGTSSDVGGYNSVSWYQQHPGKAPKLMIYSVSSRPSGVSNRFSGSKSGNTASLTISGLQAEDEADYYCSSYDTNKPLVVFGGGTKLTVL
Turning to B14, the “IC50, inhibition of IL-17 production” value in test [3] came out at 1.96 µg/mL.

B15: MOR05041 Fab (Fab, V domains shown)
VH: QVQLVQSGAEVKKPGESLKISCKGSGYSFSNYWIGWVRQMPGKGLEWMGIISPTGSVTWYSPSFQGQVTISADKSISTAYLQWSSLKASDTAMYYCARWYYKPFDVWGQGTLVTVSS
VL: DIVLTQPPSVSGAPGQRVTISCTGSSSNIGSGYDVHWYQQLPGTAPKLLIYGNSKRPSGVPDRFSGSKSGTSASLAITGLQSEDEADYYCSSWTPSSVVFGGGTKLTVL
notes: Fab
B15: the Kd in test [1] was determined as 41 pM. For the same molecule, the IC50 in test [2] is 70 pM.

B16: MOR05059 Fab (Fab, V domains shown)
VH: QVQLVQSGAEVKKPGESLKISCKGSGYSFSNYWIGWVRQMPGKGLEWMGIIDPSNSYTNYSPSFQGQVTISADKSISTAYLQWSSLKASDTAMYYCARWYYKPFDVWGQGTLVTVSS
VL: DIVLTQPPSVSGAPGQRVTISCTGSSSNIGSGYDVHWYQQLPGTAPKLLIYGNSKRPSGVPDRFSGSKSGTSASLAITGLQSEDEADYYCASWTDGLSLVVFGGGTKLTVL
notes: Fab
Regarding B16, in test [1], the Kd was found to be 93 pM. For the same molecule, in test [2], the IC50 amounted to 690 pM.

B17: MOR05058 Fab (Fab, V domains shown)
VH: QVQLVQSGAEVKKPGESLKISCKGSGYSFSNYWIGWVRQMPGKGLEWMGIIDPSNSYTNYSPSFQGQVTISADKSISTAYLQWSSLKASDTAMYYCARWYYKPFDVWGQGTLVTVSS
VL: DIVLTQPPSVSGAPGQRVTISCTGSSSNIGSGYDVHWYQQLPGTAPKLLIYGNSKRPSGVPDRFSGSKSGTSASLAITGLQSEDEADYYCSSWTDTPNMIVFGGGTKLTVL
notes: Fab
In the case of B17, the Kd in test [1] was found to be 33 pM. The IC50 in test [2] came out at 110 pM.

B18: MOR05046 Fab (Fab, V domains shown)
VH: QVQLVQSGAEVKKPGESLKISCKGSGYSFSNYWIGWVRQMPGKGLEWMGIIDPVSSWTKYSPSFQGQVTISADKSISTAYLQWSSLKASDTAMYYCARWYYKPFDVWGQGTLVTVSS
VL: DIVLTQPPSVSGAPGQRVTISCTGSSSNIGSGYDVHWYQQLPGTAPKLLIYGNSKRPSGVPDRFSGSKSGTSASLAITGLQSEDEADYYCSSWTPSSVVFGGGTKLTVL
notes: Fab
Turning to B18, the equilibrium dissociation constant (Kd) in test [1] stood at 23 pM. Also, the IC50 in test [2] came to 80 pM.

B19: MOR05044 Fab (Fab, V domains shown)
VH: QVQLVQSGAEVKKPGESLKISCKGSGYSFSNYWIGWVRQMPGKGLEWMGIISPSGSTTWYSPSFQGQVTISADKSISTAYLQWSSLKASDTAMYYCARWYYKPFDVWGQGTLVTVSS
VL: DIVLTQPPSVSGAPGQRVTISCTGSSSNIGSGYDVHWYQQLPGTAPKLLIYGNSKRPSGVPDRFSGSKSGTSASLAITGLQSEDEADYYCSSWTPSSVVFGGGTKLTVL
notes: Fab
Turning to B19, the Kd in test [1] is 43 pM. For the same molecule, the IC50 in test [2] turned out to be 50 pM.

B20: MOR05043 Fab (Fab, V domains shown)
VH: QVQLVQSGAEVKKPGESLKISCKGSGYSFSNYWIGWVRQMPGKGLEWMGFISPDGSHTWYSPSFQGQVTISADKSISTAYLQWSSLKASDTAMYYCARWYYKPFDVWGQGTLVTVSS
VL: DIVLTQPPSVSGAPGQRVTISCTGSSSNIGSGYDVHWYQQLPGTAPKLLIYGNSKRPSGVPDRFSGSKSGTSASLAITGLQSEDEADYYCSSWTPSSVVFGGGTKLTVL
notes: Fab
Take B20: the Kd in test [1] is 18 pM. The IC50 in test [2] came out at 50 pM.
